Reference: patent US20230322900A1

What was measured:
pBC0149 (human) = pBC0149 (human) (UniProt P00451); assay: cell-based or functional assay
[1] = molecular target: pBC0114 BDD FVIII base construct (pcDNA4-FVIII_4-…-Myc-SPATG-His) (human) (UniProt P00451); assay: cell-based or functional assay
[2] = molecular target: FVIII-XTEN-His-Myc, XTEN insertion A2, 403, AG144 (human); assay: sandwich ELISA, antibody capture, anti-Myc detection, normalised to anti-His capture
[3] = molecular target: FVIII-XTEN-His-Myc, XTEN insertion A2, 403, AE144 (human); assay: as above
[4] = molecular target: FVIII-XTEN-His-Myc, XTEN insertion A1, 40, AG144 (human); assay: as above
[5] = molecular target: FVIII-XTEN-His-Myc, XTEN insertion A1, 18, AG144 (human); assay: as above
[6] = molecular target: FVIII-His-Myc (non-XTEN containing FVIII-His-Myc protein) (human); assay: as above
[7] = molecular target: FVIII-XTEN-His-Myc, XTEN insertion A1, 26, AE144 (human); assay: as above
[8] = molecular target: FVIII-XTEN-His-Myc, XTEN insertion A1, 18, AE144 (human); assay: as above
[9] = molecular target: FVIII-XTEN-His-Myc, XTEN insertion A1, 26, AG144 (human); assay: as above
[10] = molecular target: FVIII-XTEN-His-Myc, XTEN insertion A2, 399, AE144 (human); assay: as above
[11] = molecular target: FVIII-XTEN-His-Myc, XTEN insertion A1, 40, AE144 (human); assay: as above
[12] = molecular target: FVIII-XTEN-His-Myc, XTEN insertion A3, 1656, AG144 (human); assay: as above

Ratio to Control (pBC0149 (human))	Relative Remaining Activity (pBC0149 (human))	Ratio to Control [1]	Concentration on aFVIII/Myc ÷ concentration on aHis/Myc [2] [%]	Concentration on aFVIII/Myc ÷ concentration on aHis/Myc [3] [%]	Concentration on aFVIII/Myc ÷ concentration on aHis/Myc [4] [%]	Concentration on aFVIII/Myc ÷ concentration on aHis/Myc [5] [%]	Concentration on aFVIII/Myc ÷ concentration on aHis/Myc [6] [%]	Concentration on aFVIII/Myc ÷ concentration on aHis/Myc [7] [%]	Concentration on aFVIII/Myc ÷ concentration on aHis/Myc [8] [%]	Concentration on aFVIII/Myc ÷ concentration on aHis/Myc [9] [%]	Concentration on aFVIII/Myc ÷ concentration on aHis/Myc [10] [%]	Concentration on aFVIII/Myc ÷ concentration on aHis/Myc [11] [%]	Concentration on aFVIII/Myc ÷ concentration on aHis/Myc [12] [%]	Substance
0.8	0.1	1												GMA8008 FVIII inhibitor antibody
			129	141	153	131	104	87	130	147	140	147	158	ESH8 anti-FVIII antibody (American Diagnostica Inc.)
1.3	0.2	1	104	103	164	150	92	155	129	157	100	137	153	GMA-8021 anti-FVIII monoclonal antibody (Green Mountain Antibodies)
